Measured values from patent publication US5633227.

Key:
[1] = target: human mast cell tryptase purified from human lung (human) (UniProt Q15661); test: VIP assay (formation of Dns-VIP-(1-14)), Dixon plot, human lung tryptase
[2] = target: human mast cell tryptase purified from human lung (human) (UniProt Q15661); test: GPK-AMC enzyme inhibition assay, Dixon plot, human lung tryptase
[3] = target: dansylated vasoactive intestinal peptide (Dns-VIP, 28 amino acids) (Homo sapiens (Human)) (UniProt P01282)
[4] = target: human mast cell tryptase purified from human lung (human) (UniProt Q15661); test: VIP assay (loss of full-length Dns-VIP), Dixon plot, human lung tryptase

Chain of N-terminal domain of SLPI (amino acids 1-49) (P03973 26-74 limits assumed): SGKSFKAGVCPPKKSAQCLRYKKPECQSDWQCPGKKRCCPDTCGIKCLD
Chain of C-terminal domain of SLPI (amino acids 50-107) (P03973 75-132 limits assumed): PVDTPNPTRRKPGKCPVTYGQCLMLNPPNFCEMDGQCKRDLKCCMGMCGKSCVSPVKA
Chain of recombinant secretory leukocyte protease inhibitor (SLPI) (P03973 26-132): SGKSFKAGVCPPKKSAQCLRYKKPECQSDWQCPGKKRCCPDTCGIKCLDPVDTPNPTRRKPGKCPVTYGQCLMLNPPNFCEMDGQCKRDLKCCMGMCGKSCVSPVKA

| Substance | Ki [1] [nM] | Ki [2] [nM] | kcat/Km for the disappearance of full-length Dns-VIP (1-28), no addition [3] [M⁻¹ s⁻¹] | Ki [4] [nM] |
| --- | --- | --- | --- | --- |
| N-terminal domain of SLPI (amino acids 1-49) (from UniProt P03973) | 130 | 290 | – | – |
| C-terminal domain of SLPI (amino acids 50-107) (from UniProt P03973) | 1.6 | 4.8 | – | – |
| human mast cell tryptase purified from human lung (from UniProt Q15661) (enzyme) | – | – | 1.8e+07 | – |
| recombinant secretory leukocyte protease inhibitor (SLPI) (from UniProt P03973) | – | – | – | 8 |
